# US20160166675A1
# “And” between values parts separate entries of the source, which are not always exact repeats. Equal entries are not always repeated.
# Target: purified EV71 virus-like particles (purified antigen solution of Example 5) (EV71 (enterovirus 71), C4a subtype) (UniProt B9VUU3)
# Test: indirect ELISA, VLP coated 1 ug/ml, control serum
substance,measurement,value
Negative serum,OD450nm,0.049 OD and 0.051 OD
